What all share (assay): cell_activity
One series deals with TALEN 103118 (synthetic). Conditions: pair with 103117; K562, 400 ng.
Another series concerns TALEN 103116 (synthetic). Conditions: pair with 103115; K562, 400 ng.
For another series, the system named is TALEN 103103 (synthetic). Conditions: pair with 103104; K562, 400 ng.
The next series relates to TALEN 103115 (synthetic). Conditions: pair with 103116; K562, 400 ng.
In another series the test system is TALEN 103112 (synthetic). The following applies: pair with 103111; K562, 400 ng.
The test system of a further series is TALEN 103102 (synthetic). Conditions: pair with 103101; K562, 400 ng.
The next series concerns TALEN 103106 (synthetic). Conditions: pair with 103105; K562, 400 ng.
The next series has as its system TALEN 103117 (synthetic). Conditions: pair with 103118; K562, 400 ng.
The test system of the next series is TALEN 103105 (synthetic). Conditions: pair with 103106; K562, 400 ng.
A further series deals with TALEN 103111 (synthetic). Conditions: pair with 103112; K562, 400 ng.
The subject of the next series is TALEN 103113 (synthetic). The following applies: pair with 103114; K562, 400 ng.
In another series the test system is TALEN 103104 (synthetic). The following applies: pair with 103103; K562, 400 ng.
A further series concerns TALEN 103108 (synthetic). Conditions: pair with 103107; K562, 400 ng.
The test system of another series is TALEN 103110 (synthetic). Conditions: pair with 103109; K562, 400 ng.
The next series concerns TALEN 103109 (synthetic). Conditions: pair with 103110; K562, 400 ng.
The subject of a further series is TALEN 103107 (synthetic). The following applies: pair with 103108; K562, 400 ng.
In a further series the test system is TALEN 103119 (synthetic). Conditions: pair with 103120 (not in Table 2B); K562, 400 ng.
Another series concerns TALEN 103114 (synthetic). Conditions: pair with 103113; K562, 400 ng.

As to “TTACCCCACTTAACTATCTTG (double strand) [TALEN 103118 site]”, in the series on TALEN 103118 (synthetic), the activity was 45.7 % indel.

With “TTAACTATCTTGGGCTGTGAC (double strand) [TALEN 103116 site]”, the activity with TALEN 103116 (synthetic) stood at 66.1 % indel.

Consider “CTATCTCTTGTACTACACTGA (double strand) [TALEN 103103 site]”, for which the activity with TALEN 103103 (synthetic) stood at 44.9 % indel.

On to “GTATGCCTGCCGTGTGAACCA (double strand) [TALEN 103115 site]”, for which the activity in the series on TALEN 103115 (synthetic) is 66.1 % indel.

“CTGTGACAAAGTCACATGGTT (double strand) [TALEN 103112 site]” gave an activity in the series with TALEN 103112 (synthetic) of 26.5 % indel.

As for “TTTTTCAGTGGGGGTGAATTC (double strand) [TALEN 103102 site]”, the activity with TALEN 103102 (synthetic) is 15.5 % indel.

In the series with TALEN 103106 (synthetic), “TTCACACGGCAGGCATACTCA (double strand) [TALEN 103106 site]” displayed an activity of 14.2 % indel.

Regarding “GTGTGAACCATGTGACTTTGT (double strand) [TALEN 103117 site]”, the activity in the series on TALEN 103117 (synthetic) came out at 45.7 % indel.

In turn, “CTACACTGAATTCACCCCCAC (double strand) [TALEN 103105 site]” came in with an activity in the series on TALEN 103105 (synthetic) of 14.2 % indel.

In the series with TALEN 103111 (synthetic), “CTGAAAAAGATGAGTATGCCT (double strand) [TALEN 103111 site]” registered an activity of 26.5 % indel.

For “ATGAGTATGCCTGCCGTGTGA (double strand) [TALEN 103113 site]”, the activity with TALEN 103113 (synthetic) came to 26.6 % indel.

“ATACTCATCTTTTTCAGTGGG (double strand) [TALEN 103104 site]” registered an activity in the series with TALEN 103104 (synthetic) of 44.9 % indel.

For “GTCACATGGTTCACACGGCAG (double strand) [TALEN 103108/103110 site]”, the activity in the series with TALEN 103108 (synthetic) was 4.2 % indel; with TALEN 103110 (synthetic), 8 % indel.

On to “ATTCACCCCCACTGAAAAAGA (double strand) [TALEN 103107/103109 site]”, for which the activity was 8 % indel with TALEN 103109 (synthetic) and 4.2 % indel in the series on TALEN 103107 (synthetic).

In the case of “ATGTGACTTTGTCACAGCCCA (double strand) [TALEN 103119 site]”, the activity in the series with TALEN 103119 (synthetic) turned out to be 57.7 % indel.

For “CTATCTTGGGCTGTGACAAAG (double strand) [TALEN 103114 site]”, the activity in the series with TALEN 103114 (synthetic) was 26.6 % indel.

The values above are taken from US20220175839.
